Results: US7176293

Assays:
[1] = molecular target: E2 ubiquitin-conjugating enzyme Ubch8, O14933
[2] = molecular target: E2 ubiquitin-conjugating enzyme UbchD2, P62837
Chain of E2 ubiquitin-conjugating enzyme UbchD2, P62837 (P62837 whole entry, looked up): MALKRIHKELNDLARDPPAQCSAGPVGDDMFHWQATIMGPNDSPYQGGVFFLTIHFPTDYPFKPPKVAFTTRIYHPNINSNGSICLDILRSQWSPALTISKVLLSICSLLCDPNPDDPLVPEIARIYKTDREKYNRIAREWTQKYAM

Chain of E2 ubiquitin-conjugating enzyme Ubch8, O14933 (O14933 whole entry): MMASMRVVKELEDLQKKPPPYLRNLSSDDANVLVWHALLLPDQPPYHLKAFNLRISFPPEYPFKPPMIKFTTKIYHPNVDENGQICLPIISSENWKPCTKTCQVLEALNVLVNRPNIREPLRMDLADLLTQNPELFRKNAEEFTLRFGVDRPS

B1: GST-Chfr (glutathione S-transferase fused to the N-terminus of full-length human Chfr) (protein)
chain: MERPEEGKQSPPPQPWGRLLRLGAEEGEPHVLLRKREWTIGRRRGCDLSFPSNKLVSGDHCRIVVDEKSGQVTLEDTSTSGTVINKLKVVKKQTCPLQTGDVIYLVYRKNEPEHNVAYLYESLSEKQGMTQESFEANKENVFHGTKDTSGAGAGRGADPRVPPSSPATQVCFEEPQPSTSTSDLFPTASASSTEPSPAGRERSSSCGSGGGGISPKGSGPSVASDEVSSFASALPDRKTASFSSLEPQDQEDLEPVKKKMRGDGDLDLNGQLLVAQPRRNAQTVHEDVRAAAGKPDKMEETLTCIICQDLLHDCVSLQPCMHTFCAACYSGWMERSSLCPTCRCPVERICKNHILNNLVEAYLIQHPDKSRSEEDVQSMDARNKITQDMLQPKVRRSFSDEEGSSEDLLELSDVDSESSDISQPYVVCRQCPEYRRQAAQPPHCPAPEGEPGAPQALGDAPSTSVSLTTAVQDYVCPLQGSHALCTCCFQPMPDRRAEREQDPRVAPQQCAVCLQPFCHLYWGCTRTGCYGCLAPFCELNLGDKCLDGVLNNNSYESDILKNYLATRGLTWKNMLTESLVALQRGVFLLSDYRVTGDTVLCYCCGLRSFRELTYQYRQNIPASELPVAVTSRPDCYWGRNCRTQVKAHHAMKFNHICEQTRFKN
- ubiquitin-protein ligase activity in vitro (ubiquitination of GST-Chfr, anti-ubiquitin immunoblot) [1]: did not function in this assay
- ubiquitin-protein ligase activity in vitro (ubiquitination of GST-Chfr, anti-ubiquitin immunoblot) [2]: supported the ubiquitin-protein ligase activity of Chfr
